Data: US20090118127A1 (Janssen / Centocor, published 2009)

Tests used:
[1] = target: T1, human tumor necrosis factor alpha (TNFα) (human, UniProt P01375 77-233); experiment: Biacore (SPR), calculated KD
T1 construct: also called human TNFα

[2] = target: T1, human tumor necrosis factor alpha (TNFα); experiment: Biacore (SPR), 3 pairs of experiments
[3] = target: T1, human tumor necrosis factor alpha (TNFα); experiment: ELISA, human TNFα coated on the plate, bound antibody detected with HRP anti-human kappa
Method: Antibodies were assessed for binding to human TNFα using an ELISA format. Briefly, human TNFα was coated into the wells of a 96 well plate and candidate mAbs were incubated at various concentrations (20 to 0.2 ng/ml) and bound antibody was detected with HRP-labeled anti-human kappa light chain IgG (Jackson, ImmunoResearch, West Grove, Pa.).

T1 sequence (P01375 77-233 limits assumed): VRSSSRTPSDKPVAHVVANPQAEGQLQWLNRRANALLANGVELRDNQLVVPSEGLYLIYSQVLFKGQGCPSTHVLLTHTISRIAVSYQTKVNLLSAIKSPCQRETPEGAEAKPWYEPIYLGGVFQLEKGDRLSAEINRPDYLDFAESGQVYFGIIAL

B1: Structure Based Human Adapted C7 (antibody, V domains shown)
VH: EVQLVESGGGLVQPGGSLRLSCAASGFIFSNHWMNWVRQAPGKGLEWIGEIRSKSINSATHYAESVKGRFIISRDDNKNSLYLEMNSLKTEDTAEYYCARNYYGSTYDYWGQGTLVTVS
VL: EIVLTQSPDFQSVTPKEKVTITCRASQFVGSSIHWYQQKPDQSPKLLIKYASESMSGVPSRFSGSGSGTDFTFTISSLEAEDAATYYCQQSHSWPFTFGPGTKVDIK
**Q.** How did the Kd [1] turn out when B1 was run?
**A.** 70 pM

**Q.** What about the koff [2] of the same binder?
**A.** 5.63e-05 s⁻¹

**Q.** And the kon [2]?
**A.** 803000 M⁻¹ s⁻¹

**Q.** What about the “EC50 (read off the curve)” value [3] of the same binder?
**A.** ~2 ng/mL
